*1 amine or outer side, *2 acyl side, *3 side chain or, on linkers, in order; H or OH if unused. Side-chain parts run from the residue outwards. The star is where a group is joined. C18 diacid = O=C(O)CCCCCCCCCCCCCCCCC(=O)*; γGlu = O=C(O)[C@H](CCC(=O)[*:2])N[*:1]; Isovaleryl = CC(C)CC(=O)*; AEEA = NCCOCCOCC(=O)O

The labels stand for the following.
T1: human neuropeptide Y2 receptor (human, UniProt P49146 1-381)
T1 construct: whole, on cells; also called hNPY2 receptor; hNPY2-R
T1 sequence (looked up): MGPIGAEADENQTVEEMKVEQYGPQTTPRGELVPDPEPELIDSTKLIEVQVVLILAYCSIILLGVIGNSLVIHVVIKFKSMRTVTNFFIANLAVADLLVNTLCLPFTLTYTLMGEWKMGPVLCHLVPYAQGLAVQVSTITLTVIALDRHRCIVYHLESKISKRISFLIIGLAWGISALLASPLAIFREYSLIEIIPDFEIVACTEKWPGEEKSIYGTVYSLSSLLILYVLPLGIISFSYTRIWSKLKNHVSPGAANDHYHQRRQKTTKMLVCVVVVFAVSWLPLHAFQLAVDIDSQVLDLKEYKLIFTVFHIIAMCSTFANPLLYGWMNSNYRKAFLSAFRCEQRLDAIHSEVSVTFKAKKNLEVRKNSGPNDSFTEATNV

B1: Compound 144 (peptide)
peptide: Isovaleryl-APEK([AEEA-AEEA-γGlu-C18 diacid])AEEDASPEELQQYYVSLRHYYNWLTRQRY-NH2
SMILES: CC(C)CC(=O)N[C@@H](C)C(=O)N1CCC[C@H]1C(=O)N[C@@H](CCC(=O)O)C(=O)N[C@@H](CCCCNC(=O)COCCOCCNC(=O)COCCOCCNC(=O)CC[C@H](NC(=O)CCCCCCCCCCCCCCCCC(=O)O)C(=O)O)C(=O)N[C@@H](C)C(=O)N[C@@H](CCC(=O)O)C(=O)N[C@@H](CCC(=O)O)C(=O)N[C@@H](CC(=O)O)C(=O)N[C@@H](C)C(=O)N[C@@H](CO)C(=O)N1CCC[C@H]1C(=O)N[C@@H](CCC(=O)O)C(=O)N[C@@H](CCC(=O)O)C(=O)N[C@@H](CC(C)C)C(=O)N[C@@H](CCC(N)=O)C(=O)N[C@@H](CCC(N)=O)C(=O)N[C@@H](Cc1ccc(O)cc1)C(=O)N[C@@H](Cc1ccc(O)cc1)C(=O)N[C@H](C(=O)N[C@@H](CO)C(=O)N[C@@H](CC(C)C)C(=O)N[C@@H](CCCNC(=N)N)C(=O)N[C@@H](Cc1c[nH]cn1)C(=O)N[C@@H](Cc1ccc(O)cc1)C(=O)N[C@@H](Cc1ccc(O)cc1)C(=O)N[C@@H](CC(N)=O)C(=O)N[C@@H](Cc1c[nH]c2ccccc12)C(=O)N[C@@H](CC(C)C)C(=O)N[C@H](C(=O)N[C@@H](CCCNC(=N)N)C(=O)N[C@@H](CCC(N)=O)C(=O)N[C@@H](CCCNC(=N)N)C(=O)N[C@@H](Cc1ccc(O)cc1)C(N)=O)[C@@H](C)O)C(C)C
B2: Compound 146 (peptide)
peptide: Isovaleryl-APEK([AEEA-AEEA-γGlu-C18 diacid])PEEEASPEELQRYYVSTRHYYNWLTRQRY-NH2
SMILES: CC(C)CC(=O)N[C@@H](C)C(=O)N1CCC[C@H]1C(=O)N[C@@H](CCC(=O)O)C(=O)N[C@@H](CCCCNC(=O)COCCOCCNC(=O)COCCOCCNC(=O)CC[C@H](NC(=O)CCCCCCCCCCCCCCCCC(=O)O)C(=O)O)C(=O)N1CCC[C@H]1C(=O)N[C@@H](CCC(=O)O)C(=O)N[C@@H](CCC(=O)O)C(=O)N[C@@H](CCC(=O)O)C(=O)N[C@@H](C)C(=O)N[C@@H](CO)C(=O)N1CCC[C@H]1C(=O)N[C@@H](CCC(=O)O)C(=O)N[C@@H](CCC(=O)O)C(=O)N[C@@H](CC(C)C)C(=O)N[C@@H](CCC(N)=O)C(=O)N[C@@H](CCCNC(=N)N)C(=O)N[C@@H](Cc1ccc(O)cc1)C(=O)N[C@@H](Cc1ccc(O)cc1)C(=O)N[C@H](C(=O)N[C@@H](CO)C(=O)N[C@H](C(=O)N[C@@H](CCCNC(=N)N)C(=O)N[C@@H](Cc1c[nH]cn1)C(=O)N[C@@H](Cc1ccc(O)cc1)C(=O)N[C@@H](Cc1ccc(O)cc1)C(=O)N[C@@H](CC(N)=O)C(=O)N[C@@H](Cc1c[nH]c2ccccc12)C(=O)N[C@@H](CC(C)C)C(=O)N[C@H](C(=O)N[C@@H](CCCNC(=N)N)C(=O)N[C@@H](CCC(N)=O)C(=O)N[C@@H](CCCNC(=N)N)C(=O)N[C@@H](Cc1ccc(O)cc1)C(N)=O)[C@@H](C)O)[C@@H](C)O)C(C)C
B3: Compound 147 (peptide)
peptide: Isovaleryl-APEK([AEEA-AEEA-γGlu-C18 diacid])PEEDASPEETQKYYVSLRHYYNWLTRQRY-NH2
SMILES: CC(C)CC(=O)N[C@@H](C)C(=O)N1CCC[C@H]1C(=O)N[C@@H](CCC(=O)O)C(=O)N[C@@H](CCCCNC(=O)COCCOCCNC(=O)COCCOCCNC(=O)CC[C@H](NC(=O)CCCCCCCCCCCCCCCCC(=O)O)C(=O)O)C(=O)N1CCC[C@H]1C(=O)N[C@@H](CCC(=O)O)C(=O)N[C@@H](CCC(=O)O)C(=O)N[C@@H](CC(=O)O)C(=O)N[C@@H](C)C(=O)N[C@@H](CO)C(=O)N1CCC[C@H]1C(=O)N[C@@H](CCC(=O)O)C(=O)N[C@@H](CCC(=O)O)C(=O)N[C@H](C(=O)N[C@@H](CCC(N)=O)C(=O)N[C@@H](CCCCN)C(=O)N[C@@H](Cc1ccc(O)cc1)C(=O)N[C@@H](Cc1ccc(O)cc1)C(=O)N[C@H](C(=O)N[C@@H](CO)C(=O)N[C@@H](CC(C)C)C(=O)N[C@@H](CCCNC(=N)N)C(=O)N[C@@H](Cc1c[nH]cn1)C(=O)N[C@@H](Cc1ccc(O)cc1)C(=O)N[C@@H](Cc1ccc(O)cc1)C(=O)N[C@@H](CC(N)=O)C(=O)N[C@@H](Cc1c[nH]c2ccccc12)C(=O)N[C@@H](CC(C)C)C(=O)N[C@H](C(=O)N[C@@H](CCCNC(=N)N)C(=O)N[C@@H](CCC(N)=O)C(=O)N[C@@H](CCCNC(=N)N)C(=O)N[C@@H](Cc1ccc(O)cc1)C(N)=O)[C@@H](C)O)C(C)C)[C@@H](C)O
B4: Compound 149 (peptide)
peptide: Isovaleryl-APEK([AEEA-AEEA-γGlu-C18 diacid])PEEAASPEELQRYYVELRHYYNWLTRQRY-NH2
SMILES: CC(C)CC(=O)N[C@@H](C)C(=O)N1CCC[C@H]1C(=O)N[C@@H](CCC(=O)O)C(=O)N[C@@H](CCCCNC(=O)COCCOCCNC(=O)COCCOCCNC(=O)CC[C@H](NC(=O)CCCCCCCCCCCCCCCCC(=O)O)C(=O)O)C(=O)N1CCC[C@H]1C(=O)N[C@@H](CCC(=O)O)C(=O)N[C@@H](CCC(=O)O)C(=O)N[C@@H](C)C(=O)N[C@@H](C)C(=O)N[C@@H](CO)C(=O)N1CCC[C@H]1C(=O)N[C@@H](CCC(=O)O)C(=O)N[C@@H](CCC(=O)O)C(=O)N[C@@H](CC(C)C)C(=O)N[C@@H](CCC(N)=O)C(=O)N[C@@H](CCCNC(=N)N)C(=O)N[C@@H](Cc1ccc(O)cc1)C(=O)N[C@@H](Cc1ccc(O)cc1)C(=O)N[C@H](C(=O)N[C@@H](CCC(=O)O)C(=O)N[C@@H](CC(C)C)C(=O)N[C@@H](CCCNC(=N)N)C(=O)N[C@@H](Cc1c[nH]cn1)C(=O)N[C@@H](Cc1ccc(O)cc1)C(=O)N[C@@H](Cc1ccc(O)cc1)C(=O)N[C@@H](CC(N)=O)C(=O)N[C@@H](Cc1c[nH]c2ccccc12)C(=O)N[C@@H](CC(C)C)C(=O)N[C@H](C(=O)N[C@@H](CCCNC(=N)N)C(=O)N[C@@H](CCC(N)=O)C(=O)N[C@@H](CCCNC(=N)N)C(=O)N[C@@H](Cc1ccc(O)cc1)C(N)=O)[C@@H](C)O)C(C)C
B5: Compound 145 (peptide)
peptide: Isovaleryl-APEK([AEEA-AEEA-γGlu-C18 diacid])PEEDSSPEEIQRYYVSLRHYYNWLTRQRY-NH2
SMILES: CC[C@H](C)[C@H](NC(=O)[C@H](CCC(=O)O)NC(=O)[C@H](CCC(=O)O)NC(=O)[C@@H]1CCCN1C(=O)[C@H](CO)NC(=O)[C@H](CO)NC(=O)[C@H](CC(=O)O)NC(=O)[C@H](CCC(=O)O)NC(=O)[C@H](CCC(=O)O)NC(=O)[C@@H]1CCCN1C(=O)[C@H](CCCCNC(=O)COCCOCCNC(=O)COCCOCCNC(=O)CC[C@H](NC(=O)CCCCCCCCCCCCCCCCC(=O)O)C(=O)O)NC(=O)[C@H](CCC(=O)O)NC(=O)[C@@H]1CCCN1C(=O)[C@H](C)NC(=O)CC(C)C)C(=O)N[C@@H](CCC(N)=O)C(=O)N[C@@H](CCCNC(=N)N)C(=O)N[C@@H](Cc1ccc(O)cc1)C(=O)N[C@@H](Cc1ccc(O)cc1)C(=O)N[C@H](C(=O)N[C@@H](CO)C(=O)N[C@@H](CC(C)C)C(=O)N[C@@H](CCCNC(=N)N)C(=O)N[C@@H](Cc1c[nH]cn1)C(=O)N[C@@H](Cc1ccc(O)cc1)C(=O)N[C@@H](Cc1ccc(O)cc1)C(=O)N[C@@H](CC(N)=O)C(=O)N[C@@H](Cc1c[nH]c2ccccc12)C(=O)N[C@@H](CC(C)C)C(=O)N[C@H](C(=O)N[C@@H](CCCNC(=N)N)C(=O)N[C@@H](CCC(N)=O)C(=O)N[C@@H](CCCNC(=N)N)C(=O)N[C@@H](Cc1ccc(O)cc1)C(N)=O)[C@@H](C)O)C(C)C
B6: Compound 150 (peptide)
peptide: Isovaleryl-APEK([AEEA-AEEA-γGlu-C18 diacid])PEEDAEPEELQKYYVSLRHYYNWLTRQRY-NH2
SMILES: CC(C)CC(=O)N[C@@H](C)C(=O)N1CCC[C@H]1C(=O)N[C@@H](CCC(=O)O)C(=O)N[C@@H](CCCCNC(=O)COCCOCCNC(=O)COCCOCCNC(=O)CC[C@H](NC(=O)CCCCCCCCCCCCCCCCC(=O)O)C(=O)O)C(=O)N1CCC[C@H]1C(=O)N[C@@H](CCC(=O)O)C(=O)N[C@@H](CCC(=O)O)C(=O)N[C@@H](CC(=O)O)C(=O)N[C@@H](C)C(=O)N[C@@H](CCC(=O)O)C(=O)N1CCC[C@H]1C(=O)N[C@@H](CCC(=O)O)C(=O)N[C@@H](CCC(=O)O)C(=O)N[C@@H](CC(C)C)C(=O)N[C@@H](CCC(N)=O)C(=O)N[C@@H](CCCCN)C(=O)N[C@@H](Cc1ccc(O)cc1)C(=O)N[C@@H](Cc1ccc(O)cc1)C(=O)N[C@H](C(=O)N[C@@H](CO)C(=O)N[C@@H](CC(C)C)C(=O)N[C@@H](CCCNC(=N)N)C(=O)N[C@@H](Cc1c[nH]cn1)C(=O)N[C@@H](Cc1ccc(O)cc1)C(=O)N[C@@H](Cc1ccc(O)cc1)C(=O)N[C@@H](CC(N)=O)C(=O)N[C@@H](Cc1c[nH]c2ccccc12)C(=O)N[C@@H](CC(C)C)C(=O)N[C@H](C(=O)N[C@@H](CCCNC(=N)N)C(=O)N[C@@H](CCC(N)=O)C(=O)N[C@@H](CCCNC(=N)N)C(=O)N[C@@H](Cc1ccc(O)cc1)C(N)=O)[C@@H](C)O)C(C)C

The assay concerns the target T1, human neuropeptide Y2 receptor. The assay can be described thus: radioligand competition (125I-PYY(1-36)), hNPY2R membranes. The method, boiled down: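 Commercial human Y2 receptor membranes (0.5 μg protein/well) were incubated with peptide for 2 h at room temperature in 50 mM HEPES, 5 mM MgCl₂, 1 mM CaCl₂, pH 7.4, with 0.2% ovalbumin. Bound radioligand was separated on PEI-soaked GF/C filters and counted by scintillation, and IC₅₀ came from nonlinear sigmoidal regression.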
For orientation: Ki means a measure of affinity in units of concentration, obtained from inhibition or displacement. Lower therefore signals tighter binding. As to B1, the Ki turned out to be 8.92 nM.
B2: the Ki came to 5.05 nM.
Molecule B3 showed a Ki of 1.19 nM.
As for B4, the Ki turned out to be 2.75 nM.
Molecule B5 returned a Ki of 1.55 nM.
As to B6, the Ki came out at 2.02 nM.

Values taken from patent publication US20210139548A1 (published 2021).
